Reference: publication PMC11117311

Experiments:
[1] = [U-13C6] glucose tracing, LC-MS/MS, HuCCT1; conditions: glycan lost; control: shK18 + WT
[2] = immunofluorescence, RBE cells; conditions: glycan lost; control: FLAG-K18WT
[3] = CHX chase 8 h, FLAG-K18 remaining by blot; conditions: glycan lost; control: FLAG-K18-WT
[4] = HA-ubiquitin, MG-132, anti-FLAG IP, anti-HA blot; conditions: glycan lost; control: FLAG-K18-WT
[5] = CHX chase up to 8 h, K18 remaining by blot; conditions: glycan lost; control: DMSO

B1: Keratin 18 (K18): S30A (protein)
parent chain: MSFTTRSTFSTNYRSLGSVQAPSYGARPVSSAASVYAGAGGSGSRISVSRSTSFRGGMGSGGLATGIAGGLAGMGGIQNEKETMQSLNDRLASYLDRVRSLETENRRLESKIREHLEKKGPQVRDWSHYFKIIEDLRAQIFANTVDNARIVLQIDNARLAADDFRVKYETELAMRQSVENDIHGLRKVIDDTNITRLQLETEIEALKEELLFMKKNHEEEVKGLQAQIASSGLTVEVDAPKSQDLAKIMADIRAQYDELARKNREELDKYWSQQIEESTTVVTTQSAEVGAAETTLTELRRTVQSLEIDLDSMRNLKASLENSLREVEARYALQMEQLNGILLHLESELAQTRAEGQRQAQEYEALLNIKVKLEAEIATYRRLLEDGEDFNLGDALDSSNSMQTIQKTTTRRIVDGKVVSETNDTKVLRH
other: TCA cycle metabolite levels [1]: changes
other: filament organisation [2]: changes
degradation_or_half_life [3]: decreases
other: ubiquitination [4]: increases

B2: Keratin 18 (K18): 5S (Ac45SGlcNAc) (protein)
parent chain: B1 parent chain
degradation_or_half_life [5]: decreases
